Measured values as given in patent US20200270325A1 (Merck Sharp & Dohme, published 2020).
Numbered stars: 1 amine (or outer) side, 2 acyl side, 3 side chain; on linkers, the order of the positions; unused ones are H or OH. Square brackets hold non-standard residues; d marks the D form. Side chains are listed from the residue outwards. Ends that are not written are not given here. * marks the point of attachment. Phe(4-CH2NH2) = NCc1ccc(C[C@H](N)C(=O)O)cc1; C18 diacid = O=C(O)CCCCCCCCCCCCCCCCC(=O)*; C16 diacid = O=C(O)CCCCCCCCCCCCCCC(=O)*; γGlu = O=C(O)[C@H](CCC(=O)[*:2])N[*:1]; Met(O2) = CS(=O)(=O)CC[C@H](N)C(=O)O; αMeD = C[C@](N)(CC(=O)O)C(=O)O; αMeS = C[C@](N)(CO)C(=O)O; AEEA = NCCOCCOCC(=O)O; Aib = CC(C)(N)C(=O)O; C16 = lipid (C16)

B1: TP612 (peptide)
peptide: H[Aib]QGTFTSDYSKYL[αMeD]ARAAK([AEEA-AEEA-γGlu-C18 diacid])[αMeD]FVQWL[Met(O2)][αMeD]T-NH2
modifications: N-terminus assumed
SMILES: CC(C)C[C@H](NC(=O)[C@H](Cc1c[nH]c2ccccc12)NC(=O)[C@H](CCC(N)=O)NC(=O)[C@@H](NC(=O)[C@H](Cc1ccccc1)NC(=O)[C@](C)(CC(=O)O)NC(=O)[C@H](CCCCNC(=O)COCCOCCNC(=O)COCCOCCNC(=O)CC[C@H](NC(=O)CCCCCCCCCCCCCCCCC(=O)O)C(=O)O)NC(=O)[C@H](C)NC(=O)[C@H](C)NC(=O)[C@H](CCCNC(=N)N)NC(=O)[C@H](C)NC(=O)[C@](C)(CC(=O)O)NC(=O)[C@H](CC(C)C)NC(=O)[C@H](Cc1ccc(O)cc1)NC(=O)[C@H](CCCCN)NC(=O)[C@H](CO)NC(=O)[C@H](Cc1ccc(O)cc1)NC(=O)[C@H](CC(=O)O)NC(=O)[C@H](CO)NC(=O)[C@@H](NC(=O)[C@H](Cc1ccccc1)NC(=O)[C@@H](NC(=O)CNC(=O)[C@H](CCC(N)=O)NC(=O)C(C)(C)NC(=O)[C@@H](N)Cc1c[nH]cn1)[C@@H](C)O)[C@@H](C)O)C(C)C)C(=O)N[C@@H](CCS(C)(=O)=O)C(=O)N[C@@](C)(CC(=O)O)C(=O)N[C@H](C(N)=O)[C@@H](C)O
B2: TP611 (peptide)
peptide: HXQGTFTSDYSKYLDARAAXXFVQWLXXT
modifications: Aib (U) at 2; K(PEG2PEG2γEC18-OH) at 20; αMD at 21; L-methionine sulphone (2) at 27; αMD at 28; C-terminal amide
B3: TP610 (peptide)
peptide: H[Aib]QGTFTSDYSKYL[αMeD]ARAAK([AEEA-AEEA-γGlu-C18 diacid])DFVQWL[Met(O2)][αMeD]T-NH2
modifications: N-terminus assumed
SMILES: CC(C)C[C@H](NC(=O)[C@H](Cc1c[nH]c2ccccc12)NC(=O)[C@H](CCC(N)=O)NC(=O)[C@@H](NC(=O)[C@H](Cc1ccccc1)NC(=O)[C@H](CC(=O)O)NC(=O)[C@H](CCCCNC(=O)COCCOCCNC(=O)COCCOCCNC(=O)CC[C@H](NC(=O)CCCCCCCCCCCCCCCCC(=O)O)C(=O)O)NC(=O)[C@H](C)NC(=O)[C@H](C)NC(=O)[C@H](CCCNC(=N)N)NC(=O)[C@H](C)NC(=O)[C@](C)(CC(=O)O)NC(=O)[C@H](CC(C)C)NC(=O)[C@H](Cc1ccc(O)cc1)NC(=O)[C@H](CCCCN)NC(=O)[C@H](CO)NC(=O)[C@H](Cc1ccc(O)cc1)NC(=O)[C@H](CC(=O)O)NC(=O)[C@H](CO)NC(=O)[C@@H](NC(=O)[C@H](Cc1ccccc1)NC(=O)[C@@H](NC(=O)CNC(=O)[C@H](CCC(N)=O)NC(=O)C(C)(C)NC(=O)[C@@H](N)Cc1c[nH]cn1)[C@@H](C)O)[C@@H](C)O)C(C)C)C(=O)N[C@@H](CCS(C)(=O)=O)C(=O)N[C@@](C)(CC(=O)O)C(=O)N[C@H](C(N)=O)[C@@H](C)O
B4: TP613 (peptide)
peptide: H[Aib]QGTFTSDYSKYLDERAAK([AEEA-AEEA-γGlu-C18 diacid])DFVQWL[Met(O2)][αMeD]T-NH2
modifications: N-terminus assumed
SMILES: CC(C)C[C@H](NC(=O)[C@H](Cc1ccc(O)cc1)NC(=O)[C@H](CCCCN)NC(=O)[C@H](CO)NC(=O)[C@H](Cc1ccc(O)cc1)NC(=O)[C@H](CC(=O)O)NC(=O)[C@H](CO)NC(=O)[C@@H](NC(=O)[C@H](Cc1ccccc1)NC(=O)[C@@H](NC(=O)CNC(=O)[C@H](CCC(N)=O)NC(=O)C(C)(C)NC(=O)[C@@H](N)Cc1c[nH]cn1)[C@@H](C)O)[C@@H](C)O)C(=O)N[C@@H](CC(=O)O)C(=O)N[C@@H](CCC(=O)O)C(=O)N[C@@H](CCCNC(=N)N)C(=O)N[C@@H](C)C(=O)N[C@@H](C)C(=O)N[C@@H](CCCCNC(=O)COCCOCCNC(=O)COCCOCCNC(=O)CC[C@H](NC(=O)CCCCCCCCCCCCCCCCC(=O)O)C(=O)O)C(=O)N[C@@H](CC(=O)O)C(=O)N[C@@H](Cc1ccccc1)C(=O)N[C@H](C(=O)N[C@@H](CCC(N)=O)C(=O)N[C@@H](Cc1c[nH]c2ccccc12)C(=O)N[C@@H](CC(C)C)C(=O)N[C@@H](CCS(C)(=O)=O)C(=O)N[C@@](C)(CC(=O)O)C(=O)N[C@H](C(N)=O)[C@@H](C)O)C(C)C
B5: TP606 (peptide)
peptide: H[Aib]QGTFTSDK([γGlu-γGlu-C16])SKYLDARAAK([AEEA-AEEA-γGlu-C16 diacid])DFVQWL[Met(O2)]DT-NH2
B6: TP583 (peptide)
peptide: H[Aib]QGTFTSDYSKYLDARAAQDFV[Phe(4-CH2NH2)]([AEEA-AEEA-γGlu-C18 diacid])WLLDT-NH2
modifications: N-terminus assumed
SMILES: CC(C)C[C@H](NC(=O)[C@H](Cc1ccc(O)cc1)NC(=O)[C@H](CCCCN)NC(=O)[C@H](CO)NC(=O)[C@H](Cc1ccc(O)cc1)NC(=O)[C@H](CC(=O)O)NC(=O)[C@H](CO)NC(=O)[C@@H](NC(=O)[C@H](Cc1ccccc1)NC(=O)[C@@H](NC(=O)CNC(=O)[C@H](CCC(N)=O)NC(=O)C(C)(C)NC(=O)[C@@H](N)Cc1c[nH]cn1)[C@@H](C)O)[C@@H](C)O)C(=O)N[C@@H](CC(=O)O)C(=O)N[C@@H](C)C(=O)N[C@@H](CCCNC(=N)N)C(=O)N[C@@H](C)C(=O)N[C@@H](C)C(=O)N[C@@H](CCC(N)=O)C(=O)N[C@@H](CC(=O)O)C(=O)N[C@@H](Cc1ccccc1)C(=O)N[C@H](C(=O)N[C@@H](Cc1ccc(CNC(=O)COCCOCCNC(=O)COCCOCCNC(=O)CC[C@H](NC(=O)CCCCCCCCCCCCCCCCC(=O)O)C(=O)O)cc1)C(=O)N[C@@H](Cc1c[nH]c2ccccc12)C(=O)N[C@@H](CC(C)C)C(=O)N[C@@H](CC(C)C)C(=O)N[C@@H](CC(=O)O)C(=O)N[C@H](C(N)=O)[C@@H](C)O)C(C)C
B7: TP602 (peptide)
peptide: H[Aib]QGTFTSDYSKYLDARAAQDFVQWL[Met(O2)]K([AEEA-AEEA-γGlu-C18 diacid])T-NH2
modifications: N-terminus assumed
SMILES: CC(C)C[C@H](NC(=O)[C@H](Cc1ccc(O)cc1)NC(=O)[C@H](CCCCN)NC(=O)[C@H](CO)NC(=O)[C@H](Cc1ccc(O)cc1)NC(=O)[C@H](CC(=O)O)NC(=O)[C@H](CO)NC(=O)[C@@H](NC(=O)[C@H](Cc1ccccc1)NC(=O)[C@@H](NC(=O)CNC(=O)[C@H](CCC(N)=O)NC(=O)C(C)(C)NC(=O)[C@@H](N)Cc1c[nH]cn1)[C@@H](C)O)[C@@H](C)O)C(=O)N[C@@H](CC(=O)O)C(=O)N[C@@H](C)C(=O)N[C@@H](CCCNC(=N)N)C(=O)N[C@@H](C)C(=O)N[C@@H](C)C(=O)N[C@@H](CCC(N)=O)C(=O)N[C@@H](CC(=O)O)C(=O)N[C@@H](Cc1ccccc1)C(=O)N[C@H](C(=O)N[C@@H](CCC(N)=O)C(=O)N[C@@H](Cc1c[nH]c2ccccc12)C(=O)N[C@@H](CC(C)C)C(=O)N[C@@H](CCS(C)(=O)=O)C(=O)N[C@@H](CCCCNC(=O)COCCOCCNC(=O)COCCOCCNC(=O)CC[C@H](NC(=O)CCCCCCCCCCCCCCCCC(=O)O)C(=O)O)C(=O)N[C@H](C(N)=O)[C@@H](C)O)C(C)C
B8: TP603 (peptide)
peptide: H[Aib]QGTFTSDYSKYLDARAAQDFVQWL[Met(O2)]K([AEEA-AEEA-γGlu-C20‑OH])T-NH2
B9: TP614 (peptide)
peptide: H[αMeS]QGTFTSDYSKYLDARAAK([AEEA-AEEA-γGlu-C16 diacid])DFVQWL[Met(O2)][αMeD]T-NH2
modifications: N-terminus assumed
SMILES: CC(C)C[C@H](NC(=O)[C@H](Cc1ccc(O)cc1)NC(=O)[C@H](CCCCN)NC(=O)[C@H](CO)NC(=O)[C@H](Cc1ccc(O)cc1)NC(=O)[C@H](CC(=O)O)NC(=O)[C@H](CO)NC(=O)[C@@H](NC(=O)[C@H](Cc1ccccc1)NC(=O)[C@@H](NC(=O)CNC(=O)[C@H](CCC(N)=O)NC(=O)[C@](C)(CO)NC(=O)[C@@H](N)Cc1c[nH]cn1)[C@@H](C)O)[C@@H](C)O)C(=O)N[C@@H](CC(=O)O)C(=O)N[C@@H](C)C(=O)N[C@@H](CCCNC(=N)N)C(=O)N[C@@H](C)C(=O)N[C@@H](C)C(=O)N[C@@H](CCCCNC(=O)COCCOCCNC(=O)COCCOCCNC(=O)CC[C@H](NC(=O)CCCCCCCCCCCCCCC(=O)O)C(=O)O)C(=O)N[C@@H](CC(=O)O)C(=O)N[C@@H](Cc1ccccc1)C(=O)N[C@H](C(=O)N[C@@H](CCC(N)=O)C(=O)N[C@@H](Cc1c[nH]c2ccccc12)C(=O)N[C@@H](CC(C)C)C(=O)N[C@@H](CCS(C)(=O)=O)C(=O)N[C@@](C)(CC(=O)O)C(=O)N[C@H](C(N)=O)[C@@H](C)O)C(C)C
B10: TP605 (peptide)
peptide: H[Aib]QGTFTSDYSKYLDARAAQDFVQWL[Met(O2)][Phe(4-CH2NH2)]([AEEA-AEEA-γGlu-C20‑OH])T-NH2
B11: TP607 (peptide)
peptide: H[Aib]QGTFTSDK([γGlu-γGlu-C16])SKYLDARAAQDFVK([AEEA-AEEA-γGlu-C16 diacid])WL[Met(O2)][αMeD]T-NH2

Columns and labels:
[1] = biological target: human Glucagon receptor (GCGR) (human, UniProt P47871 26-477); experiment: cell-based or functional assay
[2] = biological target: human GLP-1 receptor (GLP1R) (human, UniProt P43220 24-463); experiment: cell-based or functional assay

Chain of human Glucagon receptor (GCGR) (P47871 26-477): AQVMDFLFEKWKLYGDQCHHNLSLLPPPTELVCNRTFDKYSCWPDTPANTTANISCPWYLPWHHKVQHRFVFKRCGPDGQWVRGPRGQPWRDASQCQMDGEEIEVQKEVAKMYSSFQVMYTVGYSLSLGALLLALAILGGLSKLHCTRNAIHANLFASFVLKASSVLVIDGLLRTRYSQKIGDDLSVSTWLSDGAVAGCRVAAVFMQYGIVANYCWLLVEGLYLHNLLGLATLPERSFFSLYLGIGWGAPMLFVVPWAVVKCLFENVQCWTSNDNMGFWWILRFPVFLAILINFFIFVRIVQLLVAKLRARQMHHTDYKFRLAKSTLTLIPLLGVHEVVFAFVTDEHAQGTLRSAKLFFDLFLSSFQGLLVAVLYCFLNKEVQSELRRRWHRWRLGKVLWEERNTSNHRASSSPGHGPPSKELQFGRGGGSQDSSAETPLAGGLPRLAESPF

Binder	GCGR EC50 human [1]	GLP1R EC50 human [2]
B1	2.04 nM	4.95 nM
B2	0.2 nM	> 5 nM
B3	0.19 nM	> 5 nM
B4	> 5 nM	3.34 nM
B5	1.01 nM	1.84 nM
B6	6.37 nM	0.74 nM
B7	2.17 nM	0.36 nM
B8	1.88 nM	1.17 nM
B9	0.86 nM	1.4 nM
B10	3.75 nM	1.98 nM
B11	0.57 nM	1.06 nM
